Measurements published in article PMC4227788, “Architecture and ssDNA interaction of the Timeless-Tipin-RPA complex” (Nucleic Acids Research, 2014).

Tests used:
Tim-Tipin complex = target: T1, Tim-Tipin complex (mouse, UniProt Q9R1X4;Q91WA1 1-1134;1-278); assay: fluorescence anisotropy; Hill n = 1.2 ± 0.2; 30 C; 20 mM Hepes pH 7.5, 125 mM NaCl, 2 mM DTT, 0.01 mM zinc acetate (Buffer A); EMSA 15 min RT + 15 min 4 C; FA 15 min 30 C, 10 nM DNA; settings: protein: recombinant; tags: His (Tim) and His-GST (Tipin), cleaved with 3C; copies: 1;1; label: 5'-FAM
T1 sequence 1: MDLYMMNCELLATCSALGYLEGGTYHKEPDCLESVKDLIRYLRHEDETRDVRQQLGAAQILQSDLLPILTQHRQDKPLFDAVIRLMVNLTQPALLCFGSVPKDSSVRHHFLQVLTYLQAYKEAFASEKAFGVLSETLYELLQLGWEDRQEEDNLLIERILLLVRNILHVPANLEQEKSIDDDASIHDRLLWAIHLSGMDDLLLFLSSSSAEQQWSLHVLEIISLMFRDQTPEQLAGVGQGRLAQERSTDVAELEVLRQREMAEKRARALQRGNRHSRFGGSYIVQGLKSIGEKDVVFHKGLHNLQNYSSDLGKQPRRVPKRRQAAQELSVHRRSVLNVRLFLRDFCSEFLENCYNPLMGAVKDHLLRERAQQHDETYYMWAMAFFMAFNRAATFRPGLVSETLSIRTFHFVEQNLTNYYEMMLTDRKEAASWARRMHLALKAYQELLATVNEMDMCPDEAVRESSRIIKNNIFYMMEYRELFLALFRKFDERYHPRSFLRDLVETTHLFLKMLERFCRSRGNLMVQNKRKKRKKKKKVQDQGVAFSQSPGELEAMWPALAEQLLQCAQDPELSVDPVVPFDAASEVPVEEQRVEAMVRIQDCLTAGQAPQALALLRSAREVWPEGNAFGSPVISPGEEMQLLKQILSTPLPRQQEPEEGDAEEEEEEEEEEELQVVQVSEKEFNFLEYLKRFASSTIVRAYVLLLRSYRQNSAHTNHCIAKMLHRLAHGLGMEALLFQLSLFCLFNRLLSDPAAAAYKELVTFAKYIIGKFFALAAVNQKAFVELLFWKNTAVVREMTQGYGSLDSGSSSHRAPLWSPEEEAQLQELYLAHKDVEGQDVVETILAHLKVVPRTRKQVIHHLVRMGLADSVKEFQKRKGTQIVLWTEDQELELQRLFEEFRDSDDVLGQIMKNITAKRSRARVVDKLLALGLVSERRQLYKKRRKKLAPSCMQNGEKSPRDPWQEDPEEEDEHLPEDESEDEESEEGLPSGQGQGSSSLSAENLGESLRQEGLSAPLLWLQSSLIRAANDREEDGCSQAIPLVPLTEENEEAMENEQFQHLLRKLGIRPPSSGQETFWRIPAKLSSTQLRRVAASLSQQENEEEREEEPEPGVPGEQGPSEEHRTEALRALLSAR
T1 sequence 2: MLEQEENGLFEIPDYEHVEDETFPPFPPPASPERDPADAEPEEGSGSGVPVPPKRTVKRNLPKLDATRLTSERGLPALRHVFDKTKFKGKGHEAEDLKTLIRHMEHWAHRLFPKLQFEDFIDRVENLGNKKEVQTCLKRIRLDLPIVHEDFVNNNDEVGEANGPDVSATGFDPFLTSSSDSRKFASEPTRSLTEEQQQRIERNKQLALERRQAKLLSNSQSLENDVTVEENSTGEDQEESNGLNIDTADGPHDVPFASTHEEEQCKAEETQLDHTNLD

[1] = target: RPA70/32/14 (RPA70ABC/32D-WH/14) (mouse, UniProt Q8VEE4;Q99KL9;Q9CQ71 190-623;43-270;1-121); assay: EMSA; 1 RPA with excess DNA, up to 2 RPA at substoichiometric DNA; 20 mM Hepes pH 7.5, 125 mM NaCl, 2 mM DTT, 0.01 mM zinc acetate (Buffer A); EMSA 15 min RT + 15 min 4 C; FA 15 min 30 C, 10 nM DNA; settings: protein: recombinant; tags: His; copies: 1;1;1; label: 5'-FAM
Sequence of RPA70/32/14 (RPA70ABC/32D-WH/14) (Q8VEE4 190-623, chain 1 of 3): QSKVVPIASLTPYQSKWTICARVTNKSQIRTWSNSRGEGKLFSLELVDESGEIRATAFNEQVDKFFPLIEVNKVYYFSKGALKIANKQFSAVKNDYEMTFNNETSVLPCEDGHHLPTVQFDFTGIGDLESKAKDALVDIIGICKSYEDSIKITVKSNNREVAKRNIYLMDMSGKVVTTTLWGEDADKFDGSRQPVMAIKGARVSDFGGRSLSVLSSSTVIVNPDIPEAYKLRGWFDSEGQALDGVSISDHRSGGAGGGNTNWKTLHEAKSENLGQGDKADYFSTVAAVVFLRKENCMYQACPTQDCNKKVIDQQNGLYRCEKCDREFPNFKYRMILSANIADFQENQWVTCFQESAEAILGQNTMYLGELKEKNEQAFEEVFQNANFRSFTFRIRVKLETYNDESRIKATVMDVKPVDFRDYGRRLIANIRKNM
Sequence of RPA70/32/14 (RPA70ABC/32D-WH/14) (chain, as listed by the source, chain 2 of 3): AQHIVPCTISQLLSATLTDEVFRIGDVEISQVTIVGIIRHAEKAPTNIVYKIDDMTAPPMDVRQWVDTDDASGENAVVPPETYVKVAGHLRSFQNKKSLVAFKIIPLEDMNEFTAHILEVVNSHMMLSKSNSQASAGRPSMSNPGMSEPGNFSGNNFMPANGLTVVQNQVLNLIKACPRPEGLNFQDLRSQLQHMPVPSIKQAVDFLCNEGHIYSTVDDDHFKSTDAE
Sequence of RPA70/32/14 (RPA70ABC/32D-WH/14) (Q9CQ71 whole entry, chain 3 of 3): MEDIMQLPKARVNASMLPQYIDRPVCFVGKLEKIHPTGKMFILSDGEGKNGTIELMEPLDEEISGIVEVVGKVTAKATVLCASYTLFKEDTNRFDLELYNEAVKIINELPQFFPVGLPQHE

B1: 30 nt FAM ssDNA (ssDNA)
DNA: ACGCTGCCGAATTCTACCAGTGCCTTGCTA
Kd (Tim-Tipin complex): 1.7 ± 0.2 µM
binding result [1]: binds
